assay: soluble on expression in E. coli; label from the status in PepcDB or PDB records

| Sequence | soluble on expression in E. coli |
| --- | --- |
| GPGSMELNQLELFVASTEHTRSDAWRYLRRLRVLDCKIEEGFDRLHEIAVQLSGTDSDGNLVDNQGNGTLQPDRKKRGRPPLCKNAFTATPYNVGQSPDSSVLLVDPAVANLHEEFRKHSRSVKRYALEREQIAEELVASGKELTEYLEARMREFRATFSISD | soluble |
| RPNDIYVNMKTDFKAQLARCQKLLDGGARGQNACSEIYIHGLGLAINRAINIALQLQAGSFGSLQVAANTSTVELVDELEPETDTREPLTRIRNNSAIHIRVFRVTPK | not soluble |
| MESEQCPVGKIPHIRMDDGAGIEEFYTFGRILGQGSFGMVFEAIDKETGAKWAIKKVNKEKAGSSAMKLLEREVSILKTVNHQHIIHLEQVFESPQKMYLVMELCEDGELKAVMDQRGHFSENETRLIIQSLASAIAYLHNKDIVHRDLKLENIMVKSSFIDDNNEMNLNIKVTDFGLSVQKHGSRSEGMMQTTCGTPIYMAPEVINAHDYSQQCDIWSIGVIMFILLCGEPPFLANSEEKLYELIKKGELRFENPVWESVSDSAKNTLKQLMKVDPAHRITAKELLDNQWLTGNTLSSARPTNVLEMMKEWKNNPESDEETNTDEETEQSAVYSPSANTAKQPTNAAKKPAAESVGMTSSNSSSSKLLSAESKAEPEKSSETVGHASVAKTTLKSTTLFRGKKRL | soluble |
| MGSDKIHHHHHHAAIIFAFLYFTNNHKTDLESTISEQWNKITTFFSNDFSLPDTMSKLSTDNYKHEAGSRWSQNSASVYIASTDKTIVKAYQTALANWNATGSFTFNIISDKASADITAKDYSDVNSQAAGLAETETNAVTNRMSHVDVKLNRYYLLDASYGYSFDRIVHTAEHELGHAIGLDHDDKETSVMASSGSYNGIQTVDITAVKKLYAN | not soluble |
| MHHHHHHMMSETAEKAIEIWKIRRLVKQLINCHGNGTSMITLIIPPGEQISRYSNMLAEEYGTASNIKSRVNRLSVLSAITSTRERLKLYNKVPDNGLVIYCGEVIMEGNKTRKLNIDFEPFKPINTSQYLCDNKFHTEALAELLESDQRFGFIVMDGHQTLYGVVSGSAREVLQRFTVDLPKKHGRGGQSALRFARLRDEKRHNYVRKVAEGAVQHFITDDKPNVAGIVLAGSADFKTELGQSDLFDQRLQSRIIKTVDVSYGGDAGFNQAIELAADTLSNVKYVQEKKLIQRFFDEISLDSGKYCFGVVDTMNALQEGAVETLLCFADLDMIRYEFKNSEGNPVITYMTKEQEEKDSTNSFLLDKDTGAEMELVSSMLLSEWLAEHYKDYGANLEFVSDRSQEGMQFVKGFGGIGAVMRYQLDLSMLDPESDEFYSDSD | soluble |
| MSLTNFVCHTLYHLLITIIKLKDKENTRIFICDTITDYETWVKILNDQGIRTESFKEFAYREQLQNKNIEEVMELVDSDLNHYFERVDTQVYLFNDDTLIGRYMVYLGKNYHLIEDGYNCFQAKLFLGGSVVKRVIKTYLFKKYVPYGFSKYCLSIEVNSLVGLPHDIRSKKYKELPRKKLFDSLNKEQKSLIFKIFKTKPLTITPKSVLLLTQPLAQDKWYKTPTERFQSIQEQYDYFDDIVQEYRTLGYNVYLKVHPRDVVDYSKLPVELLPSNVPMEIIELMSTGRFECGITHSSTALDSLTCVDKKITLVDLKDIKEGHHHHHH | not soluble |
| MSCDRKDEEKKETEEKKDDESKKKDEKKEEKSKRKEDEKKEKQNIAGAVYNQMRNTILMEEGSVISGRFEVKGIIGGGGFAQIYKAWDKVRKEDCAIKVEHESQDIRRMKLEITVLLALRGSMGIPEILAQGKWQHEDNKSHYIVMQLVGRNLSDVRRALPHKRITERTLYRAMIQVLKALSLVHGAGFLHRDLKPSNCCIGAIDCTRIYLIDYGLTRQYLDKGGIVRKPRAGVGLRGTVRYMSLDAHARQDLGPKNDLVAFLYTTIECGDGYLPWSHEKTHENIIKLKQAHIGDKLCTKQPVMTKAAEYIESLNYHSIPDYEKLLALMEECNPPDLKESEPYDWQYRHLPNGTPGGTKENVTERMAI | soluble |
| MKTALLLVDIQNDYFPNGKMELRNPVEASEYANQLLQHFRTNSEPILHIQHVAIKDDATFFLPNTEGVHIHESVRPLREETVIVKHYPNSFRETNLLEQLKRLNIEHVVVCGMMTHMCIDATVRAAFDFGFQCTVIHDACATKDLSFKNATIPAVYIHNTILASLNGVYANVISTQEFLAT | not soluble |
| CDKSANPKQPTQGMSVVTSFYPMYAMTKEVSGDLNDVRMIQSGAGIHSFEPSVNDVAAIYDADLFVYHSHTLEAWARDLDPNLKKSKVNVFEASKPLTLDRVKGLEDMEVTQGIDPATLYDPHTWTDPVLAGEEAVNIAKELGHLDPKHKDSYTKKAKAFKKEAEQLTEEYTQKFKKVRSKTFVTQHTAFSYLAKRFGLKQLGISGISPEQEPSPRQLKEIQDFVKEYNVKTIFAEDNVNPKIAHAIAKSTGAKVKTLSPLEAAPSGNKTYLENLRANLEVLYQQLK | soluble |
| PQRSQRESRHLFIREAKKLCQKEFKRWFILAADVNPLMKYFKDRELPIPTLYLMGDRDYMFIQPVKEMVAAHKLSILREIPNCGHVCNVERPEDFNQHSIEFIKQQSIVA | not soluble |
| MGSDKIHHHHHHMIEVTQGSSPLVLGLPHTGTDVPAEVAQHLNDRGQALADTDWHIHDLYAGLVEGVTTVRTPIHRYVIDVNRDPEGVSLYPGQNTTTLVPLTDFDGHPIWQQEPDAAETAHRLETYHVPYHAALEAEMKRVAGLHGFAILYDCHSIRGDIPFLFEGRLPDFNVGTNLGATCAPSIEDMVFQRCQRAEGYTSVLNGRFKGGWTTRHYGRPDQGWHAIQMELAQATYCDEQPPWRYDPVRADRLRGHLTQILTDLTEWRPA | not soluble |
| MGSDKIHHHHHHMKTLSIVWAVVGLMLIGGCDQTPQAQSTQSKSMANVVGTTSANQDDLAFTPIVPGYKFEFPRDHLAHNNFRQEWWYLTANLTTETGEQLGAQWTQFRVALKPTDLQTIAPQVTDATPKSESTWATQQLYLAHSALTSSNAHLAHEKWSRRHSEFAEVKLDPYQIRLDNWHWQSETNALFPATLTVENPDFSYQLKLNSQAPLQYQGANGYSLKSRDGQVASYYYSQPFIEISGEINRNGKMERVTGQGWLDREWSSQFLTKTQQGWDWFALRLNDGSTLMLFQLRDQSPAESAKNAPISAFYSARRMFADGTGRNINSTDNPNDIQMTPLQWQHTVNGDYPVSWQVKIPSENIDITITPLNPNSAMPLSTPYWEGPVQLSGSHTGTGYMELTGY | not soluble |
| SNAMNFFTSPFSGIPLDQQVTNPNIIVGKHSYYSGYYHGHSFDDCVRYLHPERDDVDKLVIGSFCSIGSGAVFMMAGNQGHRSDWISTFPFFYQDNDNFADARDGFTRSGDTIIGHDVWIGTEAMIMPGVKIGHGAIIASRSVVTKDVAPYEVVGSNPAKHIKFRFSDVEIAMLLEMAWWNWPESWLKESMQSLCSSDIEGLYLNWQSKART | soluble |
| MAQMTMVQAINDALKTELKNDQDVLIFGEDVGVNGGVFRVTEGLQKEFGEDRVFDTPLAESGIGGLAMGLAVEGFRPVMEVQFLGFVFEVFDAIAGQIARTRFRSGGTKTAPVTIRGPFGGGVHTPELHADNLEGILAQSPGLKVVIPSGPYDAKGLLISSIRSNDPVVYLEHMKLYRSFREEVPEEEYTIDIGKANVKKEGNDISIITYGAMVQESMKAAEELEKDGYSVEVIDLRTVQPIDVDTIVASVEKTGRAVVVQEAQRQAGVGAAVVAELSERAILSLEAPIGRVAAADTIYPFTQAENVWLPNKNDIIEKAKETLEF | not soluble |
| MGSDKIHHHHHHMKALMFGWEFPPHILGGLGTASFGLTRGMAMQPDMDITFCIPKPWGDEDQSFLKIVGVNQVPIVWKDVDREYVQQRVSKAGMNADQYYKYRDHIYADFSYRHVTDLGCLEFSGRYPDNLLEEINNYSIVAGVIARTEEYDIIHAHDWLTYPAGIHAKNVSGKPLVIHVHATDYDRSRGNVNPDVYAIEKNGMDNADHIITVSNLTRQTVIEKYHQDPAKVTTVHNAVEPLSPEILAIPDKKGVKDKVITFLGRITMQKGPEYFVEAAAKVLAKAPYARFVMAGSGDMMDQMIRLAAARNISDRFHFTGFMKGKQVYEVLKASDVYVMPSVSEPFGISPLEAMQCGVPSIISKQSGCAEILDYAIKVDYWDIEALADAMYSIITYPAMHEFLKVEGKKEVDNIKWEYAGQKVRRIYDNVIGNK | not soluble |
| MAHHHHHHMSIAKKRLAQERAEWRKDHPAGFSAKYSPMSDGKGLDIMKWICKIPGKKGGLWEGGEYPLTMEFTEDYPSKPPKCKFTTVLFHPNIYPSGTVCLSILNEDEDWKPSITIKQILLGIQDLLDNPNPNSPAQAEPFLLYQQDRDSYEKKVKKQAIEFRPKD | not soluble |
| MRTLTIEPLTKDAFAPFGDVIETDGSDHFMINNGSTMRFHRLAEVDTAQPDDKAIISIFRAESLPMPLTIGMLERHPQGSQAFIPLLGNPFLIVVAPVGDAPESALTRAFVSNGRQGVNYHRGVWHHPVLTIEKQDDFLVVDRSGSGNNCDEHYFEENQRLVLDPNPQEGLEHHHHHH | soluble |
| MNQGERNAVSLLKDKLFNEEGKPVNLIFCYTILQMKVAERIMAQHPGERFYVVLMSENRNEKYDYYFNQIKDKAERAYFFYLPYGLNKSFNFIPTMAELKVKSMLLPKVKRIYLASLEKVSIAAFLSTYPDAEIKTFDDGTNNLIRESSYLGGEFAVNGAIKRNFARMMVGDWSIAKTRNASDEHYTIFKGLKNIMDDGRRKMTYLPLFDASELKAGDETGGTVRILLGSPDKEMKEISEKAAKNFNIQYVAPHPRQTYGLSGVTALNSPYVIEDYILREIKKNPHTRYEIYTFFSGAALTMKDFPNVHVYALKPASLPEDYWLKPVYALFRQADIPILAFDDKLEHHHHHH | not soluble |
| MTEPSTSGAQDHDDYLVTLSSPQRQCTIRVVQPASALKRKLPTSSVPEFNPDSYGESIPENAPRPVCETCSVAWSTWAAYEFHMLQTHIIYRPFRCSGCRNLNFHTEDEGKHHLEHFHGGKPGSFQLIKQTDFAKENQLIECLENAKTTEQLGISKERLENGLKMIEKLQKIKFKAVKVHLPCCLRHEMISKHTETEKEAPPQEKSVTNAQKPGNPALLSLESRNYDYEQQDTVGI | not soluble |
| MLSNDILRSVRYILKANNNDLVRILALGNVEATAEQIAVWLRKEDEEGFQRCPDIVLSSFLNGLIYEKRGKDESAPALEPERRINNNIVLKKLRIAFSLKTDDILAILTEQQFRVSMPEITAMMRAPDHKNFRECGDQFLRYFLRGLAARQHVKKG | soluble |
| GRYEIRFSGAGGQGLILAGVIMAEAASIYDGKQAVQSQSYGPEARGGASKSEVIISDGPVDYPKATQCDALLALTQEACDKYSADLKEGGVLLVDSDLVTKLPPGNYQTTAFNIINTAKNDVGREIVANIVALGAMVALTGVVSKEAAEKAVLSRVPEAFVELNRKAFQMGFEKAL | not soluble |
| MSNDQSAMNELHWLIDMVQTIEVGLVVLDRDYNIQLWNGFMENHSGVSPNSIKGQNLFSRFPDLPATWLKQKMESVFMLKNRAFISWEQRPYVFQFKNYRPITGRADFMYQNVTLLPLASLTGKITHISVIVYDVTDIAVNKLEHHHHHH | soluble |
| VNEIVVNPNATLDWQLALRQAAGKTDLARDMLQMLLDFLPEVRNKVEEQLVGENPEGLVDLIHKLHGSCGYSGVPRMKNLCQLIEQQLRSGTKEEDLEPELLELLDEMDNVAREASKILG | soluble |
| MDRLIRSLLMNQNKQATDKLDHPDTSETVNISSLALLKMLRHARSGIPLEVMGLMLGDFVDDYTINVTDVFAMPQSGTSVTVESVDPVYQTKHMDLLKLVGRTENVVGWYHSHPGFGCWLSSVDVNTQQSFEALHPRAVAVVVDPIQSVKGKVMLDAFRSVNPLNLQIRPLAPTAEPRQTTSNLGHLTKPSLISVVHGLGTKYYSLNVAYRMGSNEQKMLMCLNKKSWYDQLNMSTYSELEKKQEEKFKSINKLIAVFNKDIDEVKEKPIADKKGKTQEEVKKFGKINAKQQLQMITSSLLNDSLCHQLTAMINAKSMT | not soluble |

Source: the DeepSol protein solubility set
